Source: patent publication US20200317768A1 (published 2020)
Changes are numbered by the printed parent chain.

T1: cynomolgus monkey FcγRIIa2 extracellular domain with C-terminal His-tag (cynomolgus monkey)
T1 construct: Expressed in FreeStyle 293 cells and purified; also called cyno FcγRIIa2; cynoFcgRIIa2; not shown: C-terminal His-tag
T1 chain: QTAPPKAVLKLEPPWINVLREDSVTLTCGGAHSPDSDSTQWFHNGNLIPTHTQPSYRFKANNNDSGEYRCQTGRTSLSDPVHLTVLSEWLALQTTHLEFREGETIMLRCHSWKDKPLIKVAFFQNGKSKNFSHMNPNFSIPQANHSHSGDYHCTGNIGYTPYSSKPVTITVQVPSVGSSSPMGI

T2: human FcγRIIb extracellular domain with C-terminal His-tag (human, UniProt P31994 43-217)
T2 construct: Expressed in FreeStyle 293 cells and purified; also called humanFcgRIIb; not shown: C-terminal His-tag
T2 sequence: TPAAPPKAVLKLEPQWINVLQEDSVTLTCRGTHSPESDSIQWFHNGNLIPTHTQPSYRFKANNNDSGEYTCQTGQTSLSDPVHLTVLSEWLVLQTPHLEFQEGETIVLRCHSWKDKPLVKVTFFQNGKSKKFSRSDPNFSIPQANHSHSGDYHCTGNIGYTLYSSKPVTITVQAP

T3: human FcγRIIaR extracellular domain with C-terminal His-tag (human, UniProt P12318 34-217)
T3 construct: Expressed in FreeStyle 293 cells and purified; also called human FcγRIIa (type R); FcgRIIaR; not shown: C-terminal His-tag
T3 chain: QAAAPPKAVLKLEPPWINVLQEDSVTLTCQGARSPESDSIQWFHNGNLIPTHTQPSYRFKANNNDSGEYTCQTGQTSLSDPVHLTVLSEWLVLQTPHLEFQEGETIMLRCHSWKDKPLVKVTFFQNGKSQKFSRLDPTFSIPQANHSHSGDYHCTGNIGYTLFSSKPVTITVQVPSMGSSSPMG

T4: human FcγRIIaH extracellular domain with C-terminal His-tag (human, UniProt P12318 34-217)
T4 construct: Expressed in FreeStyle 293 cells and purified; also called human FcγRIIa (type H); FcgRIIaH; not shown: C-terminal His-tag
T4 sequence: T3 chain with R134H

T5: cynomolgus monkey FcγRIIa3 extracellular domain with C-terminal His-tag (cynomolgus monkey)
T5 construct: Expressed in FreeStyle 293 cells and purified; also called cyno FcγRIIa3; cynoFcgRIIa3; not shown: C-terminal His-tag
T5 chain: T1 chain with K127I, N130K, H133P, Q142R

T6: cynomolgus monkey FcγRIIa1 extracellular domain with C-terminal His-tag (cynomolgus monkey)
T6 construct: Expressed in FreeStyle 293 cells and purified; also called cyno FcγRIIa1; cynoFcgRIIa1; not shown: C-terminal His-tag
T6 chain: T1 chain with T95P, A121T, K127I, S128A, N130K, N135D, Q142R

T7: human FcγRIIb extracellular domain, His-tagged (human, UniProt P31994 43-217)
T7 construct: also called FcgRIIb (human); not shown: C-terminal His-tag
T7 sequence: T2 sequence

B1: MS_M103205H795-SG1/M103202L889-SK1 (antibody, human IgG1, kappa)
heavy: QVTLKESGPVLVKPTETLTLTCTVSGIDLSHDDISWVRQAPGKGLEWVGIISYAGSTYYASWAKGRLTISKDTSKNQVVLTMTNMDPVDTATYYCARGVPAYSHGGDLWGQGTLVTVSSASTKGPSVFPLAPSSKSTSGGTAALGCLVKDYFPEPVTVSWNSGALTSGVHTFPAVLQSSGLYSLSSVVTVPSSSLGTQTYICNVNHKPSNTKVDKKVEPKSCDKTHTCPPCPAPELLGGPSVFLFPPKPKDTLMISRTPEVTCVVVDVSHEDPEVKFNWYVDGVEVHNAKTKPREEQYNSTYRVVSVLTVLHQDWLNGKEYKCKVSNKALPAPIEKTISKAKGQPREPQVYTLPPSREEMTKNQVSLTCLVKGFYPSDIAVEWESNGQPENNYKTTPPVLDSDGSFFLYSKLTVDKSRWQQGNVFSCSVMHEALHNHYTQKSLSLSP
light: DIVMTQSPATLSLSPGERATLSCTSSQSVYHANWLSWFQQKPGQPPKLLIYWASTLAYGVPSRFSGSGSGTDFTLTISSLQPEDAATYYCAGGYGGGRYAFGQGTKVEIKRTVAAPSVFIFPPSDEQLKSGTASVVCLLNNFYPREAKVQWKVDNALQSGNSQESVTEQDSKDSTYSLSSTLTLSKADYEKHKVYACEVTHQGLSSPVTKSFNRGEC
notes: Anti-latent myostatin IgG; also called MS1032LO06-SG1
B2: M103205H795-MY168 / M103202L889-SK1 (antibody, human IgG1, kappa)
heavy: QVTLKESGPVLVKPTETLTLTCTVSGIDLSHDDISWVRQAPGKGLEWVGIISYAGSTYYASWAKGRLTISKDTSKNQVVLTMTNMDPVDTATYYCARGVPAYSHGGDLWGQGTLVTVSSASTKGPSVFPLAPSSKSTSGGTAALGCLVKDYFPEPVTVSWNSGALTSGVHTFPAVLQSSGLYSLSSVVTVPSSSLGTQTYICNVNHKPSNTKVDKKVEPKSCDKTHTCPPCPAPELLNGPSVFLFPPKPKDTLMISRTPEVTCVVVDVSEEDPEVKFNWYVDGVEVHNAKTKPREEQYNSTYRVVSVLTVLHQDWLNGKEYKCKVSNKALPAPIEKTISKAKGQPREPQVYTLPPSREEMTKNQVSLTCLVKGFYPSDIAVEWESNGQPENNYKTTPAVLDSDGSFFLYSKLTVDKSRWQQGNVFSCSVMHEALHNHYTQKSLSLSP
light: B1 light
notes: Position 396 variant derived from MY052, expressed with M103202L889-SK1 as light chain
B3: M103205H795-MY169 / M103202L889-SK1 (antibody, human IgG1, kappa)
heavy: B2 heavy with A398D
light: B1 light
notes: as for B2
B4: M103205H795-MY171 / M103202L889-SK1 (antibody, human IgG1, kappa)
heavy: B2 heavy with A398F
light: B1 light
notes: as for B2
B5: M103205H795-MY052 / M103202L889-SK1 (antibody, human IgG1, kappa)
heavy: B2 heavy with A398M
light: B1 light
notes: Fc variant of M103205H795-SG1, expressed with M103202L889-SK1 as light chain; parent of the position 396 variants
B6: M103205H795-MY170 / M103202L889-SK1 (antibody, human IgG1, kappa)
heavy: B2 heavy with A398E
light: B1 light
notes: as for B2
B7: M103205H795-MY476/M103202L889-SK1 (antibody, human IgG1, kappa)
heavy: B2 heavy with A233Y, N238T, E270D, A332K, A398P
light: B1 light
notes: copies: 2 + 2
B8: M103205H795-MY475/M103202L889-SK1 (antibody, human IgG1, kappa)
heavy: B2 heavy with A233W, N238T, E270D, A332K, A398P
light: B1 light
notes: copies: 2 + 2
B9: M103205H795-MY474/M103202L889-SK1 (antibody, human IgG1, kappa)
heavy: B2 heavy with A233V, N238T, E270D, A332K, A398P
light: B1 light
notes: copies: 2 + 2

Molecular target: T1, cynomolgus monkey FcγRIIa2 …
Test: SPR (Biacore); KD of SG1 divided by KD of the variant for this FcgR;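 also: relative to parent M103205H795-SG1 carrying the SG1 human heavy chain constant region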
Description: (§1) The kinetic analysis of interactions between these antibodies and FcγR was carried out using BIACORE® T200 or BIACORE® 4000 (GE Healthcare). HBS-EP+ (GE Healthcare) was used as the running buffer, and the measurement temperature was set to 25° C. A chip produced by immobilizing Protein A. Protein A/G or mouse anti-human IgG kappa light chain (BD Biosciences) onto a Series S Sensor Chip CM4 or CM5 (GE Healthcare) by the amine-coupling method was used. […] After the measurement, the antibody captured on the chip was washed off by allowing reaction with 10 mM glycine-HCl, pH1.5 and 25 mM NaOH so that the chip was regenerated and used repeatedly. The sensorgrams obtained as measurement results were analyzed by the 1:1 Langmuir binding model using the BIACORE® Evaluation Software to calculate the binding rate constant ka (L/mol/s) and dissociation rate constant kd (l/s), and the dissociation constant KD (mol/L) was calculated from these values. […] Regarding such interactions, KD values were calculated using the following 1:1 binding model described in BIACORE® T100 Software Handbook BR1006-48 Edition AE.
(§2) The resultant variants were expressed using M103202L889-SK1 as light chain and their affinity to human and cynoFcγRs were evaluated (Table 20).

Point of comparison: B4, “KD fold (SG1 = 1)” value 2.2 fold. Against it:
- B1 — lower, 1 fold
- B2 — lower, 2 fold
- B3 — the same, 2.2 fold
- B5 — higher, 3.4 fold
- B6 — lower, 2.1 fold

What follows are binders tested against T2, human FcγRIIb extracellular domain with … in the same assay as above.
Description: as §1, §2

Point of comparison: B3, “KD fold (SG1 = 1)” value 3.5 fold. Against it:
- B1 — lower, 1 fold
- B2 — lower, 2.7 fold
- B4 — higher, 3.8 fold
- B5 — higher, 6.4 fold
- B6 — lower, 2.9 fold

Molecular target: T3, human FcγRIIaR extracellular domain …
Test: as above
Description: as §1, §2

Point of comparison: B6, “KD fold (SG1 = 1)” value 0.4 fold. Against it:
- B1 — higher, 1 fold
- B2 — the same, 0.4 fold
- B3 — the same, 0.4 fold
- B4 — higher, 0.5 fold
- B5 — higher, 0.8 fold

These binders were tested against T4, human FcγRIIaH extracellular domain … in the same assay as above.
Description: as §1, §2

Point of comparison: B2, “KD fold (SG1 = 1)” value 0.4 fold. Against it:
- B1 — higher, 1 fold
- B3 — higher, 0.6 fold
- B4 — higher, 0.5 fold
- B5 — higher, 0.8 fold
- B6 — the same, 0.4 fold

Molecular target: T5, cynomolgus monkey FcγRIIa3 …
Test: as above
Description: as §1, §2

Point of comparison: B2, “KD fold (SG1 = 1)” value 1.7 fold. Against it:
- B1 — lower, 1 fold
- B3 — the same, 1.7 fold
- B4 — higher, 1.8 fold
- B5 — higher, 4.4 fold
- B6 — lower, 1.4 fold

These binders were tested against T8, human FcγRIIIaV extracellular domain with C-terminal His-tag (human, UniProt P08637 17-208) in the same assay as above.
T8 construct: Expressed in FreeStyle 293 cells and purified; also called FcgRIIIaV; not shown: C-terminal His-tag
Description: as §1, §2

T8 sequence (P08637 17-208 F176V): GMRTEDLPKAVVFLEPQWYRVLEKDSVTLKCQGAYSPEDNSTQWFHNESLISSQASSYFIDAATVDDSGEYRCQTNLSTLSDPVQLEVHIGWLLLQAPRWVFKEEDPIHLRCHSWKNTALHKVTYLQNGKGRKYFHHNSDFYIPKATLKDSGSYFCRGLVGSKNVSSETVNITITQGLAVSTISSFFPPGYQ

Point of comparison: B5, “KD fold (SG1 = 1)” value 0.54 fold. Against it:
- B1 — higher, 1 fold
- B2 — lower, 0.1 fold
- B3 — lower, 0.13 fold
- B4 — lower, 0.14 fold
- B6 — lower, 0.13 fold

Molecular target: T6, cynomolgus monkey FcγRIIa1 …
Test: as above
Description: as §1, §2

Point of comparison: B6, “KD fold (SG1 = 1)” value 1.4 fold. Against it:
- B1 — lower, 1 fold
- B2 — higher, 1.5 fold
- B3 — the same, 1.4 fold
- B4 — the same, 1.4 fold
- B5 — higher, 2.3 fold

What follows are binders tested against T7, human FcγRIIb extracellular domain, … (assay: SPR (BIACORE), captured antibody, FcgR as analyte).

Point of comparison: B7, Kd 1.2 µM. Against it:
- B8 — within 1.5-fold, 1.1 µM
- B9 — 1.7-fold higher, 2 µM

What follows are binders tested against T9, human FcγRIIIaV extracellular domain, His-tagged (human, UniProt P08637 17-208) (assay: SPR (BIACORE), captured antibody, FcgR as analyte).
T9 construct: also called FcgRIIIaV; not shown: C-terminal His-tag
T9 sequence (P08637 17-208 F176V): as above

Point of comparison: B9, Kd 4.6 µM. Against it:
- B7 — within 1.5-fold, 5.5 µM
- B8 — within 1.5-fold, 5 µM
